Reference: patent EP3970798A1 (NMI Naturwissenschaftliches und Medizinisches Institut an …, dated 2022)

B1: nanobody NM1230 (VHH)
VHH: QVQLVESGGGLVRPGGSLRLSCVGSGFTFSGYAMNWYRQAPGKALELVAGISNAGDLTHYEEPMKGRVAISRANDKNTVYLQMDDLKPEDTAVYRCHAPGVRVGTGERKDVWGQGAQVTVSS
B2: nanobody NM1229 (VHH)
VHH: EVQLQESGGGLVQPGESLRLSCAASGRTHDWYTMGWFRQAPGKEREFVARINWSSGMTYYADSVKGRFTISRDNPKNTVYLQMNSLTPDDTAVYYCNVHPFTSPDYWGQGTRVTVSS

Target: receptor binding domain (RBD) of the SARS-CoV-2 Spike protein (SARS-CoV-2, UniProt P0DTC2 319-541)

Binder | IC50 [nM] | Kd [nM]
B1 | 2.12 | 8.23
B2 | 38 | 
